Data from PMC10164591, “RNA binding proteins Smaug and Cup induce CCR4–NOT-dependent deadenylation of the nanos mRNA in a reconstituted system”.

Legend:
[1] = target: T1, MBP-Cup N (Drosophila melanogaster, UniProt Q9VMA3 1-417); assay: UV crosslinking; UV crosslinking: 16 mM HEPES pH 7.6, 50 mM K acetate, 1 mM Mg acetate, 0.8 mM ATP, 0.24 mg/ml yeast tRNA, 1 mM DTT, 10% glycerol, room temp; EMSA: deadenylation buffer with tRNA (omitted for A70 PABPC), 5% glycerol, 25 C; conditions: protein: recombinant; tags: N-terminal MBP; label: 5'-32P
T1 sequence: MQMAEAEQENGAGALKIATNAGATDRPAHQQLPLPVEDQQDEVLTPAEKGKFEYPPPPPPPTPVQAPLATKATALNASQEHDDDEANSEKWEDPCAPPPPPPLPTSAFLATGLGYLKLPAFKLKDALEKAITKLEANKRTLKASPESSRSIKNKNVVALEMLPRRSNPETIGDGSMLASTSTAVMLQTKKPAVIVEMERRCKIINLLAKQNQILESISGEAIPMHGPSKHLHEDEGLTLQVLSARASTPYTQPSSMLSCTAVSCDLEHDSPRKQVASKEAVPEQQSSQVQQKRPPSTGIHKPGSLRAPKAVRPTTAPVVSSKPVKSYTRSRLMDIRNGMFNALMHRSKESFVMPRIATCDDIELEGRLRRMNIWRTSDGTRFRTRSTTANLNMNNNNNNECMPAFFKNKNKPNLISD

[2] = target: T2, MBP-Cup M (Drosophila melanogaster, UniProt Q9VMA3 418-770); assay: as above; conditions: protein: recombinant; tags: N-terminal MBP; label: 5'-32P
T2 sequence: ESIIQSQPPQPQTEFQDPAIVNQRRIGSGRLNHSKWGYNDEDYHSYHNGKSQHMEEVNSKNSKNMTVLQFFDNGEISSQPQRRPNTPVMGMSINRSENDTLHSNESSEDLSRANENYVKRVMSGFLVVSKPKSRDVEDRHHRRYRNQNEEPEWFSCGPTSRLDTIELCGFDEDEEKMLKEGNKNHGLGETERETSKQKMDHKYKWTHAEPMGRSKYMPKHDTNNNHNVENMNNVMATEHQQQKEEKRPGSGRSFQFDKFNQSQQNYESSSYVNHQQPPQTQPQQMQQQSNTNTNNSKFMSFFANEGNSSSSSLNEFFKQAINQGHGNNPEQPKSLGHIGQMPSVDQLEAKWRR

[3] = target: T3, MBP-Cup C (Drosophila melanogaster, UniProt Q9VMA3 771-1117); assay: as above; conditions: protein: recombinant; tags: N-terminal MBP; label: 5'-32P
T3 sequence: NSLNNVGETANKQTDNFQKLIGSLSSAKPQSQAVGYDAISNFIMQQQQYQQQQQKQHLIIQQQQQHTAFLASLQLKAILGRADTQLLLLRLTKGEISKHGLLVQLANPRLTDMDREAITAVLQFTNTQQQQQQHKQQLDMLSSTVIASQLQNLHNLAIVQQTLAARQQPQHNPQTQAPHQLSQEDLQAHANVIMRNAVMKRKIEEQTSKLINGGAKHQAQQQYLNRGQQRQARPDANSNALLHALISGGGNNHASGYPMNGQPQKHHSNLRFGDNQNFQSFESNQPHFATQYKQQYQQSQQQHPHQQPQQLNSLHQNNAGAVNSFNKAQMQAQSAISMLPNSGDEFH

[4] = target: T4, MBP-Cup NM (Drosophila melanogaster, UniProt Q9VMA3 1-770); assay: as above; conditions: protein: recombinant; tags: N-terminal MBP; label: 5'-32P
T4 sequence: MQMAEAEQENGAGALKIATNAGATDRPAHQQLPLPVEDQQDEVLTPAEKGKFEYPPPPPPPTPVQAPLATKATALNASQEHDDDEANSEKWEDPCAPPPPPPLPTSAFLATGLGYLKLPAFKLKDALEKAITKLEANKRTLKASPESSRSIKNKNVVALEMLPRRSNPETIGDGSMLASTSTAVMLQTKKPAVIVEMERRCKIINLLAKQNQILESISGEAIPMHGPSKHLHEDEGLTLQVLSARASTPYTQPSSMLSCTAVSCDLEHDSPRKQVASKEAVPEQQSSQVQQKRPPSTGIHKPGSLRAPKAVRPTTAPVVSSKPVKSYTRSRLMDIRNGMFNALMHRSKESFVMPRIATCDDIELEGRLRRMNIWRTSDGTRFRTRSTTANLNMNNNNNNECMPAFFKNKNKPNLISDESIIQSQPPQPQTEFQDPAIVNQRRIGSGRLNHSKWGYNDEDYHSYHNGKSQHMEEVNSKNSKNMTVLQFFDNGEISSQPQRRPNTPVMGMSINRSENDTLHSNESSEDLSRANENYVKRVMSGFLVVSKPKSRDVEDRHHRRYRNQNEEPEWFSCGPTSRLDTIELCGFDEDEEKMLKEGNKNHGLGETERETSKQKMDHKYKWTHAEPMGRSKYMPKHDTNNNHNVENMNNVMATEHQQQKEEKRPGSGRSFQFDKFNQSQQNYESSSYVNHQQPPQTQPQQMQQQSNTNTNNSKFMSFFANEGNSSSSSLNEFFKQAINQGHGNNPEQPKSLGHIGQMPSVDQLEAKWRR

[5] = target: T5, MBP-Cup MC (Drosophila melanogaster, UniProt Q9VMA3 418-1117); assay: as above; conditions: protein: recombinant; tags: N-terminal MBP; label: 5'-32P
T5 sequence: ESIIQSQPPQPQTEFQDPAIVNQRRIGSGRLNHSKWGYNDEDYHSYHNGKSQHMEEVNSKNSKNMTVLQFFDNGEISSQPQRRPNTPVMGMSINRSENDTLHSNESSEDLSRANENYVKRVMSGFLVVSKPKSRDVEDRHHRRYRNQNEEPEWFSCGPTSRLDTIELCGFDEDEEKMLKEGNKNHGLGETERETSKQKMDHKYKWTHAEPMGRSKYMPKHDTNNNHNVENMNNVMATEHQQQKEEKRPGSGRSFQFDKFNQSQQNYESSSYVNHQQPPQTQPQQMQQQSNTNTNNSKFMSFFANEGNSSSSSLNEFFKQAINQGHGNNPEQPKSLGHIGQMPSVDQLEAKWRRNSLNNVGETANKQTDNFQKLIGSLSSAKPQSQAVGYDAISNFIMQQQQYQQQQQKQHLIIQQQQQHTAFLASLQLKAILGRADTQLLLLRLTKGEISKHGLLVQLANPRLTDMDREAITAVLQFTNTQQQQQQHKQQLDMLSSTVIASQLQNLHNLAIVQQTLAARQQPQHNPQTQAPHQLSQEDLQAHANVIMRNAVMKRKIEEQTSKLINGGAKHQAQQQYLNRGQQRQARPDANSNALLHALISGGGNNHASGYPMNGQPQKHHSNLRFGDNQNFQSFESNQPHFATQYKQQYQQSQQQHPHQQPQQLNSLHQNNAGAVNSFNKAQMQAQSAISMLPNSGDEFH

[6] = target: T6, His8-MBP-Cup MC (Drosophila melanogaster, UniProt Q9VMA3 418-1117); assay: UV crosslinking + Ni-NTA pull-down; 6 M urea wash; UV crosslinking: 16 mM HEPES pH 7.6, 50 mM K acetate, 1 mM Mg acetate, 0.8 mM ATP, 0.24 mg/ml yeast tRNA, 1 mM DTT, 10% glycerol, room temp; EMSA: deadenylation buffer with tRNA (omitted for A70 PABPC), 5% glycerol, 25 C; conditions: protein: recombinant; tags: N-terminal His8-MBP; label: 5'-32P
T6 sequence: T5 sequence

[7] = target: T7, His8-MBP-Cup C (Drosophila melanogaster, UniProt Q9VMA3 771-1117); assay: as above; conditions: protein: recombinant; tags: N-terminal His8-MBP; label: 5'-32P
T7 sequence: T3 sequence

[8] = target: T8, His8-MBP-Cup full length (Drosophila melanogaster, UniProt Q9VMA3 1-1117); assay: as above; conditions: protein: recombinant; tags: N-terminal His8-MBP; label: 5'-32P
T8 sequence: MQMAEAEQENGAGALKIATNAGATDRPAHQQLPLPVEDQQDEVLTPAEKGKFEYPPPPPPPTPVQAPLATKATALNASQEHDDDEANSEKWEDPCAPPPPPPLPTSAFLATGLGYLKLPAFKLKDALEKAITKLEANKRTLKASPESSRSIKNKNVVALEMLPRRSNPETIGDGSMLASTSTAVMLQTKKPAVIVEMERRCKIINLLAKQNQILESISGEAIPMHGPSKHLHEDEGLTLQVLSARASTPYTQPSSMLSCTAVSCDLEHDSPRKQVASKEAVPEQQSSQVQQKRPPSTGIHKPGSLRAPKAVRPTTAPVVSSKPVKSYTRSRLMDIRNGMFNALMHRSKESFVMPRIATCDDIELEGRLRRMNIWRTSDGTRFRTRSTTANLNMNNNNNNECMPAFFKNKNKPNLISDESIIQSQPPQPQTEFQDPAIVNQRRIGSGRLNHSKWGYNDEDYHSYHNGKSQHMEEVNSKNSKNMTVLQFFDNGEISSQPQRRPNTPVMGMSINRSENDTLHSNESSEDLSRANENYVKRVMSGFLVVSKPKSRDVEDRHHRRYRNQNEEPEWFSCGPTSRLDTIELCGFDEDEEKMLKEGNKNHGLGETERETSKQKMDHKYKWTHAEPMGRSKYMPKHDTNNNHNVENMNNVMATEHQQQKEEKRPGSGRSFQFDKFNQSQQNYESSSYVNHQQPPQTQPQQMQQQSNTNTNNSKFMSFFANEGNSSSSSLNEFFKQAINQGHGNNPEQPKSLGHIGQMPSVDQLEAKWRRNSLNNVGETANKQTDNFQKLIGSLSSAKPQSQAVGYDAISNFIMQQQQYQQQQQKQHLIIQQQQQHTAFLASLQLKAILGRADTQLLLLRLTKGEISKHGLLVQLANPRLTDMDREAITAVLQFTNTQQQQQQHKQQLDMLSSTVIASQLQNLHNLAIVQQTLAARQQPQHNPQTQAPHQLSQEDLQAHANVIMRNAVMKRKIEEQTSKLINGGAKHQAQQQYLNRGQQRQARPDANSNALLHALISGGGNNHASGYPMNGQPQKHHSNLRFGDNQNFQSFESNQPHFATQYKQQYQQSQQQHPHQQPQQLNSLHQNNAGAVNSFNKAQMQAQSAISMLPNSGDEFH

[9] = target: T9, His8-MBP-Cup M (Drosophila melanogaster, UniProt Q9VMA3 418-770); assay: as above; conditions: protein: recombinant; tags: N-terminal His8-MBP; label: 5'-32P
T9 sequence: T2 sequence

Measured: binding result

GGGUUUAGUGCGCACGUG (ssRNA) [18nt RNA oligonucleotide]
binds: [1] | [2] | [3] | [4] | [5] | [6] | [7] | [8] | [9]
